Measured values as given in patent publication US20180355059A1 (PHARMAEXPLORER, published 2018).

These binders were tested against T1, recombinant human PCSK9-His protein (Immunogen A) (human, UniProt Q8NBP7 31-692, limits assumed, biotinylated in the ELISA assays) (assay: SPR, Biacore;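 also: antibodies captured via immobilized anti-human Fc IgG on a CM5 chip, PCSK9 as analyte in HBS-EP+ buffer, 400 s dissociation, reference flow cell subtracted, 1:1 binding model fit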).
T1 construct: also called hPCSK9-His; His-tagged hPCSK9; not shown: His tag

Binder | Kd [nM] | koff [s⁻¹] | kon [M⁻¹ s⁻¹]
AF-mab023_01 (antibody, V domains shown) VH: EVQLVESGGGLVQPGGSLRLSCAASGITFSSYWMSWVRQAPGKGLEWVANIKQDGSEKYYVDSVKGRFTISRDIAKNSLYLQMNSLRAEDTAVYYCARDRGTYYYGIGSYNYYYYGMDVWGQGTTVTVSS VL: not shown | 0.36 | 0.000115 | 320000
AF-mab023_19 (antibody, V domains shown) VH: EVQLVESGGGLVQPGGSLRLSCAASGITFSSYWMSWVRQAPGKGLEWVANIKQDGSEKYYVDSVKGRFTISRDIAKNSLYLQMNSLRAEDTAVYYCARDRGTYYYASGKYNYYYYGMDVWGQGTTVTVSS VL: not shown | 1.55 | 0.000351 | 226000
AF-mab023_18 (antibody, V domains shown) VH: EVQLVESGGGLVQPGGSLRLSCAASGITFSSYWMSWVRQAPGKGLEWVANIKQDGSEKYYVDSVKGRFTISRDIAKNSLYLQMNSLRAEDTAVYYCARDRGTYYYADGDYNYYYYGMDVWGQGTTVTVSS VL: not shown | 0.292 | 0.000161 | 551000
AF-mab023_05 (antibody, V domains shown) VH: EVQLVESGGGLVQPGGSLRLSCAASGITFSSYWMSWVRQAPGKGLEWVANIKQDGSEKYYVDSVKGRFTISRDIAKNSLYLQMNSLRAEDTAVYYCARDRGTYYHWLGSYNYYYYGMDVWGQGTTVTVSS VL: not shown | 0.207 | 6.31e-05 | 305000
AF-mab023_15 (antibody, V domains shown) VH: EVQLVESGGGLVQPGGSLRLSCAASGITFSSYWMSWVRQAPGKGLEWVANIKQDGSEKYYVDSVKGRFTISRDIAKNSLYLQMNSLRAEDTAVYYCARDRGTYYYQDGNYNYYYYGMDVWGQGTTVTVSS VL: not shown | 0.381 | 0.000182 | 477000
AF-mab023_03 (antibody, V domains shown) VH: EVQLVESGGGLVQPGGSLRLSCAASGITFSSYWMSWVRQAPGKGLEWVANIKQDGSEKYYVDSVKGRFTISRDIAKNSLYLQMNSLRAEDTAVYYCARDRGTYYYASGSYNYYYYGMDVWGQGTTVTVSS VL: not shown | 1.24 | 0.00046 | 370000
AF-mab023_08 (antibody, V domains shown) VH: EVQLVESGGGLVQPGGSLRLSCAASGITFSSYWMSWVRQAPGKGLEWVANIKQDGSEKYYVDSVKGRFTISRDIAKNSLYLQMNSLRAEDTAVYYCARDRGTYYIADGSYNYYYYGMDVWGQGTTVTVSS VL: not shown | 0.443 | 0.000158 | 357000
AF-mab023_13 (antibody, V domains shown) VH: EVQLVESGGGLVQPGGSLRLSCAASGITFSSYWMSWVRQAPGKGLEWVANIKQDGSEKYYVDSVKGRFTISRDIAKNSLYLQMNSLRAEDTAVYYCARDRGTYYYTEGSYNYYYYGMDVWGQGTTVTVSS VL: not shown | 0.392 | 0.000178 | 455000
AF-mab023_14 (antibody, V domains shown) VH: EVQLVESGGGLVQPGGSLRLSCAASGITFSSYWMSWVRQAPGKGLEWVANIKQDGSEKYYVDSVKGRFTISRDIAKNSLYLQMNSLRAEDTAVYYCARDRGTYYYADGGYNYYYYGMDVWGQGTTVTVSS VL: not shown | 0.306 | 0.000164 | 534000
AF-mab023_17 (antibody, V domains shown) VH: EVQLVESGGGLVQPGGSLRLSCAASGITFSSYWMSWVRQAPGKGLEWVANIKQDGSEKYYVDSVKGRFTISRDIAKNSLYLQMNSLRAEDTAVYYCARDRGTYYTGMGEYNYYYYGMDVWGQGTTVTVSS VL: not shown | 0.31 | 0.000109 | 351000
AF-mab023_02 (antibody, V domains shown) VH: EVQLVESGGGLVQPGGSLRLSCAASGITFSSYWMSWVRQAPGKGLEWVANIKQDGSEKYYVDSVKGRFTISRDIAKNSLYLQMNSLRAEDTAVYYCARDRGTYYYWLGTYNYYYYGMDVWGQGTTVTVSS VL: not shown | 0.268 | 8.2e-05 | 306000
AF-mab023_04 (antibody, V domains shown) VH: EVQLVESGGGLVQPGGSLRLSCAASGITFSSYWMSWVRQAPGKGLEWVANIKQDGSEKYYVDSVKGRFTISRDIAKNSLYLQMNSLRAEDTAVYYCARDRGTYYYDSGGYNYYYYGMDVWGQGTTVTVSS VL: not shown | 0.409 | 0.000239 | 584000
AF-mab023_07 (antibody, V domains shown) VH: EVQLVESGGGLVQPGGSLRLSCAASGITFSSYWMSWVRQAPGKGLEWVANIKQDGSEKYYVDSVKGRFTISRDIAKNSLYLQMNSLRAEDTAVYYCARDRGTYYYQQGSYNYYYYGMDVWGQGTTVTVSS VL: not shown | 0.653 | 0.000214 | 327000
AF-mab023_10 (antibody, V domains shown) VH: EVQLVESGGGLVQPGGSLRLSCAASGITFSSYWMSWVRQAPGKGLEWVANIKQDGSEKYYVDSVKGRFTISRDIAKNSLYLQMNSLRAEDTAVYYCARDRGTYYYDSGRYNYYYYGMDVWGQGTTVTVSS VL: not shown | 1.05 | 0.000328 | 313000
AF-mab023_12 (antibody, V domains shown) VH: EVQLVESGGGLVQPGGSLRLSCAASGITFSSYWMSWVRQAPGKGLEWVANIKQDGSEKYYVDSVKGRFTISRDIAKNSLYLQMNSLRAEDTAVYYCARDRGTYYYTEGGYNYYYYGMDVWGQGTTVTVSS VL: not shown | 0.176 | 8.47e-05 | 480000
AF-mab023_06 (antibody, V domains shown) VH: EVQLVESGGGLVQPGGSLRLSCAASGITFSSYWMSWVRQAPGKGLEWVANIKQDGSEKYYVDSVKGRFTISRDIAKNSLYLQMNSLRAEDTAVYYCARDRGTYYFQSGSYNYYYYGMDVWGQGTTVTVSS VL: not shown | 0.225 | 6.59e-05 | 293000
AF-mab023_11 (antibody, V domains shown) VH: EVQLVESGGGLVQPGGSLRLSCAASGITFSSYWMSWVRQAPGKGLEWVANIKQDGSEKYYVDSVKGRFTISRDIAKNSLYLQMNSLRAEDTAVYYCARDRGTYYYQEGSYNYYYYGMDVWGQGTTVTVSS VL: not shown | 0.26 | 0.000144 | 553000
AF-mab023_16 (antibody, V domains shown) VH: EVQLVESGGGLVQPGGSLRLSCAASGITFSSYWMSWVRQAPGKGLEWVANIKQDGSEKYYVDSVKGRFTISRDIAKNSLYLQMNSLRAEDTAVYYCARDRGTYYYQDGKYNYYYYGMDVWGQGTTVTVSS VL: not shown | 0.447 | 0.000143 | 319000
